As a reminder, the Kd is the concentration at which binding is half-saturated. Read a high Kd as lower affinity.

Consider three molecules from paper PMC2915670.

Data set [1] addresses FMDV 2C(61–318) (foot-and-mouth disease virus, type [change]).
The next data set has as its target FMDV 2C(34-318) (Foot-and-mouth disease virus type O1K, UniProt P03305 1141-1425). As to the kind of experiment: EMSA.

Regarding FMDV 2C(61–318) (domain or fragment), the ATPase activity (pmol Pi/pmol protein/min) in data set [1] came out at 0.46.
The molecule AAUUCUAAGGGCCAGCGAGA (ssRNA) [20-base ssRNA] came in with a Kd with FMDV 2C(34-318) of about 5 µM.
Take CGCGAAUAAUUU (ssRNA) [12-base ssRNA]: the binding result with FMDV 2C(34-318) was “binds”.
